What was measured:
[1] = target: T1, GST-tagged peptide H5 (positions 1 to 110 of the human IgG4 heavy chain constant region) (human, UniProt P01861 1-110 = IgG part); assay: Western blot: E. coli lysate with the GST-tagged peptide, SDS-PAGE, PVDF membrane, POD-labelled antibody diluted 1000-fold, ECL
T1 construct: E. coli lysate on Western blot; not shown: GST tag (glutathione S-transferase) linked to the N terminal, expressed from vector pGEX-6P-1
Protocol: (§1) Based on the designed amino acid sequences, base sequences suitable for expressing protein in E. coli were designed according to the protocol of GenScript Corporation, thereby preparing vector pGEX-6P-1 (GE Healthcare Bio-Sciences Corp.) to which the respective base sequences are inserted. The prepared expression plasmid was introduced to E. coli BL 21 strain, thereby obtaining a transformant. The transformant was cultured by an ordinary method and a protein expression was induced by IPTG. After the cells were collected by centrifugation, the cells were dissolved with an ordinary lysis solution, and subjected to ultrasonication. 6 μL of an SDS sample buffer solution was added to 6 μL of the obtained lysate. The respective prepared samples were subjected to a heat treatment at 95° C. for 5 minutes. 10 μL of the E. coli disrupted sample was added to each well of 5 to 20% electrophoresis gel (Atto Corportation) to which an SDS electrophoresis buffer solution was added. Similarly, a molecular weight standard (Bio-Rad Laboratories, Inc.) was added to each well and electrophoresed. After completing the electrophoresis, the electrophoresis gel was transcribed to a PVDF membrane (Millipore Corporation) with a transfer buffer solution. The PVDF membrane was immersed in a membrane blocking buffer solution, and then shaking was carried out at room temperature for 30 minutes. Amino groups of MaI4-08, MaI4-09, and MaI4-05-produced antibodies were subjected to a POD labeling treatment with a POD labeling kit (Dojindo Molecular Technologies, Inc.). The obtained labeled antibodies each were diluted 1000-fold by PBST. After the PVDF membrane was cleaned with PBST, the antibody solutions prepared each were added to the PVDF membrane, and then the reaction was performed at room temperature for 1 hour. After the PVDF membrane was cleaned by PBST, a signal was detected with ECL Prime Western Blotting Detection Reagents (GE Healthcare) with Image Quant Las4000.

[2] = target: T2, GST-tagged peptide H37 (H10 with R289K and L325P) (human, UniProt P01861 221-324 = IgG part); assay: as above
T2 construct: not shown: N-terminal GST tag (from vector pGEX-6P-1) and any vector linker
T2 chain: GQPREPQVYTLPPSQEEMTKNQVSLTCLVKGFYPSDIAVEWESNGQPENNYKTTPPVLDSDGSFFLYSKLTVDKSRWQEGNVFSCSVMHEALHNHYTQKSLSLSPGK
Protocol: as §1

[3] = target: T3, GST-tagged peptide H9 (positions 166 to 327 of the human IgG4 heavy chain constant region) (human, UniProt P01861 166-325 = IgG part); assay: as above
T3 construct: E. coli lysate on Western blot; not shown: GST tag (glutathione S-transferase) linked to the N terminal, expressed from vector pGEX-6P-1
Protocol: as §1

[4] = target: T4, Myeloma human IgG4 (EMD Millipore) (human); assay: indirect ELISA, antigen coated 1 µg/mL, antibody 1 µg/mL; no-antigen well 0.042
T4 construct: Bought myeloma protein
Protocol: (§2) Myeloma human IgA1 (Abcam), Myeloma human IgA2 (Abcam), Myeloma human IgD (Abcam), Myeloma human IgE (Abcam), Myeloma human IgM (Abcam), Myeloma human IgG1 (EMD Millipore), Myeloma human IgG2 (EMD Millipore), Myeloma human IgG3 (Sigma-Aldrich Co. LLC), and Myeloma human IgG4 (EMD Millipore) were adjusted to 1 μg/mL with PBS(−). The adjusted samples were added to a 96-well plate (Thermo Fisher Scientific) by 100 μL, respectively. The plate was shaken by a shaker under the condition of 700 rpm and 25.0° C. for 1 hour. The solutions were discarded, the plate was cleaned with 300 μL of PBST 3 times, 100 μL of a blocking buffer solution was added to each well, and then the plate was stored at 4° C. one night or more. Similarly, after cleaning with PBST, the MaI4-08 and MaI4-09-produced antibodies were adjusted to 1 μg/mL with an antibody dilute buffer solution and then added to each well by 100 μL, and the plate was shaken under the same condition as mentioned above. Similarly, after cleaning with PBST, a HRP labeled anti-mouse IgG antibody (Abcam) diluted 4000-fold with an antibody dilute buffer solution was added to each well by 100 μL, and the plate was shaken under the same condition as mentioned above. Similarly, after cleaning with PBST, 100 μL of SureBlue (KPL) was added. 5 or 3 minutes later, 100 μL of 0.5 mol/L sulfuric acid (Wako Pure Chemical Corporation) was added to each of MaI4-08 and MaI4-09. Absorbance at a wavelength of 450 nm was measured with a microplate reader (BIO-RAD Laboratories, Inc.). As a result, a strong signal was given to Myeloma human IgG4 as compared to the other samples (Tables 2 and 3, and FIGS. 2 and 3).

[5] = target: T5, Myeloma human IgG3 (Sigma-Aldrich Co. LLC) (human); assay: as above
T5 construct: Bought myeloma protein
Protocol: as §2

[6] = target: Myeloma human IgE (Abcam) (human, UniProt P01854-1 1-428); assay: as above
Protocol: as §2

[7] = target: T6, Myeloma human IgG1 (EMD Millipore) (human); assay: as above
T6 construct: Bought myeloma protein
Protocol: as §2

[8] = target: Myeloma human IgA1 (Abcam) (human, UniProt P01876-1 1-353); assay: as above
Protocol: as §2

[9] = target: Myeloma human IgA2 (Abcam) (human, UniProt P01877-1 1-340); assay: as above
Protocol: as §2

[10] = target: Myeloma human IgM (Abcam) (human, UniProt P01871-1 1-453); assay: as above
Protocol: as §2

[11] = target: Myeloma human IgD (Abcam) (human, UniProt P01880-1 1-384); assay: as above
Protocol: as §2

[12] = target: T7, Myeloma human IgG2 (EMD Millipore) (human); assay: as above
T7 construct: Bought myeloma protein
Protocol: as §2

Chain of Myeloma human IgE (Abcam) (P01854 other isoform, or with tags, fused parts or gaps): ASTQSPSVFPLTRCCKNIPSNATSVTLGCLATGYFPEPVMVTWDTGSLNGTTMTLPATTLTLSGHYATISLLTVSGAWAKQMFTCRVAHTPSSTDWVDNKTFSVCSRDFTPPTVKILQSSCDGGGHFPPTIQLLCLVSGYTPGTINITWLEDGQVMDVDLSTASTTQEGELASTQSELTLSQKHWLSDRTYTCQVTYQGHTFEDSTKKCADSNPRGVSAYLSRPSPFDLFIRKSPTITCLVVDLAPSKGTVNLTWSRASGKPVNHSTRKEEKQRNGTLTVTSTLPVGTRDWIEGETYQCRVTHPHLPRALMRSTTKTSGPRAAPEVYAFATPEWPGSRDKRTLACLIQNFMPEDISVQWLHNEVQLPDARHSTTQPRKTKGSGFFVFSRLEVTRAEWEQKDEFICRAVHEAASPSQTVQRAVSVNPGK
T1 sequence (P01861 1-110): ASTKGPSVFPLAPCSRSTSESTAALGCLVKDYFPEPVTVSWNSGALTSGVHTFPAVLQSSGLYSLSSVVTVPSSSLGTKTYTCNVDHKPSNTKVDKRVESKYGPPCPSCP
Chain of Myeloma human IgA2 (Abcam) (P01877 other isoform, or with tags, fused parts or gaps): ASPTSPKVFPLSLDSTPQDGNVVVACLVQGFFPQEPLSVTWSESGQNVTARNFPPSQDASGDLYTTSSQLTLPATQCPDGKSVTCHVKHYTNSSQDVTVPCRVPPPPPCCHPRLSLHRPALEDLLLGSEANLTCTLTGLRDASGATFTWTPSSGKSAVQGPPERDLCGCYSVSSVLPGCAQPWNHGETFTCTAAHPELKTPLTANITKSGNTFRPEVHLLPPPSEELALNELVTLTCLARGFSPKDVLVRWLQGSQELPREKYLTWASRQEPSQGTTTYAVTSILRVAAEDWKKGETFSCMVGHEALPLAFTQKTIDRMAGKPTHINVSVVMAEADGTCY
T7 sequence (constant, as listed by the source limits assumed): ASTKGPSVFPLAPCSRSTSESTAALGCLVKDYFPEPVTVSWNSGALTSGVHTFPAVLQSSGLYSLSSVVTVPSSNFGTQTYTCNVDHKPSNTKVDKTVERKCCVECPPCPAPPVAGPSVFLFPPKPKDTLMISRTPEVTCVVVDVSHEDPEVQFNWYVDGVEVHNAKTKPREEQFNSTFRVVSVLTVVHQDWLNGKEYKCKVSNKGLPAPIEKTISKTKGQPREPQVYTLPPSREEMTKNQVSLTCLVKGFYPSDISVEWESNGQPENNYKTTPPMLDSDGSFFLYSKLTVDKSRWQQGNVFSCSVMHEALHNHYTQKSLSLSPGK
Chain of Myeloma human IgM (Abcam) (P01871 other isoform, or with tags, fused parts or gaps): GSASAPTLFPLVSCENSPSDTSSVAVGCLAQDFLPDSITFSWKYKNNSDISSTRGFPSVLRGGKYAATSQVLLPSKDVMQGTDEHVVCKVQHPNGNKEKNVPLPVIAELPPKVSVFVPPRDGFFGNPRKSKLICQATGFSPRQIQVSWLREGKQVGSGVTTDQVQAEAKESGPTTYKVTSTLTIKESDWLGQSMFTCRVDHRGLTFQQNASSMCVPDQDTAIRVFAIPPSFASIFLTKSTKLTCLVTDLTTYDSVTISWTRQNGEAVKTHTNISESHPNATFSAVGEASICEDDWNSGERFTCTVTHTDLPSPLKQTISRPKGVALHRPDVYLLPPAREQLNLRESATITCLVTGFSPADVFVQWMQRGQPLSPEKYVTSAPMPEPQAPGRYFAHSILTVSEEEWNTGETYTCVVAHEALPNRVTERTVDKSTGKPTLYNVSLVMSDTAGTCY
T5 sequence (constant, as listed by the source limits assumed): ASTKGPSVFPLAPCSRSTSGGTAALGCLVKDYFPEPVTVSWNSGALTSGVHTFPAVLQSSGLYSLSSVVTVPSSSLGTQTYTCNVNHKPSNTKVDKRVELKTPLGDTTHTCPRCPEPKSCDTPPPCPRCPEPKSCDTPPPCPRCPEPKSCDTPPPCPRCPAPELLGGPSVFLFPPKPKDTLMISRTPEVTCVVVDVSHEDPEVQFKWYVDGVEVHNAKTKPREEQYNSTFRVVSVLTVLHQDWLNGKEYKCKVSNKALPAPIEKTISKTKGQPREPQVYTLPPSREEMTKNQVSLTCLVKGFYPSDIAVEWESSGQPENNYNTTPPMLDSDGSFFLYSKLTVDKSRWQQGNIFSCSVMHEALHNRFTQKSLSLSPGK
Chain of Myeloma human IgA1 (Abcam) (P01876 other isoform, or with tags, fused parts or gaps): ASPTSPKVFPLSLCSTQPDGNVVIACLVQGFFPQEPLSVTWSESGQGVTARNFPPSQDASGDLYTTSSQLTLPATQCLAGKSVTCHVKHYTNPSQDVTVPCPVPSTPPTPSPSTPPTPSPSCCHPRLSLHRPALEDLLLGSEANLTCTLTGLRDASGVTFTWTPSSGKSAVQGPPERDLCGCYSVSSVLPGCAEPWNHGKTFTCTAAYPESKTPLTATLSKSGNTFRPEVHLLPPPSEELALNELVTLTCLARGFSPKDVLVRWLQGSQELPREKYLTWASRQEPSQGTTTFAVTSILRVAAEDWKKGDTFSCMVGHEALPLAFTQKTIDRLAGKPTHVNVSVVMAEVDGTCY
T3 sequence (P01861 other isoform, or with tags, fused parts or gaps): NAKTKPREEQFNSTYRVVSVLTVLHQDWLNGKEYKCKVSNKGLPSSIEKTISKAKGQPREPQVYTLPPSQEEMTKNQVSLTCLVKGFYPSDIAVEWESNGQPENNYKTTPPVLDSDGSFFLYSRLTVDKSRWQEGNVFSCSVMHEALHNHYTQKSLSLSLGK
T4 sequence (constant, as listed by the source limits assumed): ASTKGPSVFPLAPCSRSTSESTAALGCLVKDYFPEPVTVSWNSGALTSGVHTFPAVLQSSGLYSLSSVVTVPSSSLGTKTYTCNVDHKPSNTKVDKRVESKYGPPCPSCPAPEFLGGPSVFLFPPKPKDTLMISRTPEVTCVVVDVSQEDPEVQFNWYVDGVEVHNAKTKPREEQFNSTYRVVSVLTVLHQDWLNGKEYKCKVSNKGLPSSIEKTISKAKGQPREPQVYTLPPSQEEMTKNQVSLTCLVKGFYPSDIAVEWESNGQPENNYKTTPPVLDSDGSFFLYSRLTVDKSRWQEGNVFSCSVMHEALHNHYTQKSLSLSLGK
Chain of Myeloma human IgD (Abcam) (P01880 other isoform, or with tags, fused parts or gaps): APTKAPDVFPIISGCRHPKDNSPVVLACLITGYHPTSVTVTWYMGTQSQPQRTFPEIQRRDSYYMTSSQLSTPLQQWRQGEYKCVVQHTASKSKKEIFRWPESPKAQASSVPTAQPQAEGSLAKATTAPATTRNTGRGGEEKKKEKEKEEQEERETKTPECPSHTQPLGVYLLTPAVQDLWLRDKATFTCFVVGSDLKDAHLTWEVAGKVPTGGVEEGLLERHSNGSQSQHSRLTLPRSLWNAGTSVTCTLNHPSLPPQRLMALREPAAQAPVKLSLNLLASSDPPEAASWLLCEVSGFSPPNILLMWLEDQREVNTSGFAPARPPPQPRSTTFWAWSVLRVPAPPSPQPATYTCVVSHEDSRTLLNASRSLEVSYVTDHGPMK
T6 sequence (constant, as listed by the source limits assumed): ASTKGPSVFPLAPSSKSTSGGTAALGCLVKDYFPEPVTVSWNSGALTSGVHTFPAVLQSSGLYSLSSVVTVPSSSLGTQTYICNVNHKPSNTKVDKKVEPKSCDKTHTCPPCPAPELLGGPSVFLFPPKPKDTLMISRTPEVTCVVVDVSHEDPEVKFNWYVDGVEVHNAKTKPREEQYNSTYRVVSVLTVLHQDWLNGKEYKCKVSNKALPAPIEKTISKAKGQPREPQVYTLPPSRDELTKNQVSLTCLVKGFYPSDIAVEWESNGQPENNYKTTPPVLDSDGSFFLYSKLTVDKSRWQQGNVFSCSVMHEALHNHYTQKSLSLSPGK

B1: MaI4-08-produced antibody (antibody, IgG1, V domains shown)
VH: EVQLQQSGPELVKPGTSVKMSCKASGYIFTSYILHWVKQKPGQGLEWIAYINPYNDGTKYKEKFKGKGTLTSDKSSSTAYMELSSLTSEDSAVYYCARSGGGYGNYAWFAYWGPGTLVTVST
VL: DIQMTQSPSSLSASLGERVSLTCRASQDIGSSLNWLQQEPDGTIKRLIYATSSLDSGVPKRFSGSRSGSDYSLTISSLESEDFVDYYCLQYASYPPTFGAGTKLELK
notes: Purified on protein G from hybridoma culture supernatant; POD-labelled for the Western blots
binding result [1]: no binding
binding result [2]: binds
binding result [3]: binds
absorbance at 450 nm [4]: 2.04
absorbance at 450 nm [5]: 0.044
absorbance at 450 nm [6]: 0.041
absorbance at 450 nm [7]: 0.048
absorbance at 450 nm [8]: 0.043
absorbance at 450 nm [9]: 0.043
absorbance at 450 nm [10]: 0.042
absorbance at 450 nm [11]: 0.042
absorbance at 450 nm [12]: 0.047

Reference: patent US20210140973A1 (NITTO BOSEKI, published 2021)
